Experimental data published in PMC13376213, “Systematic discovery of motif-based interactions of the auxiliary domains of USP family deubiquitinases” (Nature Communications, 2026).

Target: USP11 DUSP-UBL tandem domain (human) (UniProt P51784)
Test: fluorescence polarisation; displacement: serial dilution of the unlabelled peptide against the domain (at two-fold the KD of the FITC-labelled peptide) in complex with 10 nM FITC-labelled peptide; 50 mM phosphate buffer pH 7.4; room temperature; three technical replicates; sigmoidal dose-response fit

Chain of USP11 DUSP-UBL tandem domain (human) (P51784 whole entry, the tested form may be a part): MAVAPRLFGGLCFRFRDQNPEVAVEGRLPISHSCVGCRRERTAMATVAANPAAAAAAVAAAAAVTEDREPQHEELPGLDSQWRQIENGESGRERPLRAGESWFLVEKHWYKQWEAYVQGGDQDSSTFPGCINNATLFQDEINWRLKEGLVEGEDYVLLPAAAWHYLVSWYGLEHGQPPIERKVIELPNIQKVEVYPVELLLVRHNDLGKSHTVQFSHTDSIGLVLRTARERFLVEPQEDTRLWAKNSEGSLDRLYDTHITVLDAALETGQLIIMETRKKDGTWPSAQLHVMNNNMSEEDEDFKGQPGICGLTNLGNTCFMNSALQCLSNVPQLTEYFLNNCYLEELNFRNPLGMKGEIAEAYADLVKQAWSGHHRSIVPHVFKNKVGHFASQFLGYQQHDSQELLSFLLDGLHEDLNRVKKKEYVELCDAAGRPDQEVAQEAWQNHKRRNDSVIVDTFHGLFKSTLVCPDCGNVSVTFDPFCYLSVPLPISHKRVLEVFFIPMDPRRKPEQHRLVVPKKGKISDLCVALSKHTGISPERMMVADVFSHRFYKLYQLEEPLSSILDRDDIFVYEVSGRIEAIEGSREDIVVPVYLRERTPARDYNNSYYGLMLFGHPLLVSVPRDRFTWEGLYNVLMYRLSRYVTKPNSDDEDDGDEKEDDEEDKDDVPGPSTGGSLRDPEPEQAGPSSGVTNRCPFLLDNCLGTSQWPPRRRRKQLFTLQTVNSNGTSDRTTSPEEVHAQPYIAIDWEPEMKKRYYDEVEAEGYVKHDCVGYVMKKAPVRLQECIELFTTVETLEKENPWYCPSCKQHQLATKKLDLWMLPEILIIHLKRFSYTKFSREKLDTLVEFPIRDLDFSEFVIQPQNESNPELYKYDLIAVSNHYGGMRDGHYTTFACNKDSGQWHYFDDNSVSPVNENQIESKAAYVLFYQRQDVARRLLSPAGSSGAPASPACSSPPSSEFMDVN

Q: With Ac-SAVTYPDWIGQSYSEV-NH2 [ORAI1 48-63 peptide, unlabelled] as the binder, how does the Kd read?
A: 207 µM
